Biological target: ClC-ec1 C85A/H234C labelled with Cy5 (WT-Cy5) (Escherichia coli) (UniProt P37019)
Test: single-molecule photobleaching of subunits captured into liposomes (TIRF); high-density proteoliposomes (χ = 7.5 × 10^-6 subunit/lipid) diluted 10X to 1000X by freeze/thaw fusion with empty 2:1 POPE/POPG vesicles, incubated at room temperature, time course after freeze/thaw

mid-point of the convergence of the 1000X diluted sample to the reconstituted probabilities: 13 days
Substance: ClC-ec1 C85A/H234C labelled with Cy5 (WT-Cy5) (from UniProt P37019 1-473) (natural protein)
